The source of these data is IntAct's records for PubMed 21108945.

The target in test [1] is nbn_human NBN (UniProt O60934).
Test [2] addresses nbn_human NBN (UniProt O60934). This is another data set of the same source.

Sequence of UniProt O60934 (O60934 whole entry): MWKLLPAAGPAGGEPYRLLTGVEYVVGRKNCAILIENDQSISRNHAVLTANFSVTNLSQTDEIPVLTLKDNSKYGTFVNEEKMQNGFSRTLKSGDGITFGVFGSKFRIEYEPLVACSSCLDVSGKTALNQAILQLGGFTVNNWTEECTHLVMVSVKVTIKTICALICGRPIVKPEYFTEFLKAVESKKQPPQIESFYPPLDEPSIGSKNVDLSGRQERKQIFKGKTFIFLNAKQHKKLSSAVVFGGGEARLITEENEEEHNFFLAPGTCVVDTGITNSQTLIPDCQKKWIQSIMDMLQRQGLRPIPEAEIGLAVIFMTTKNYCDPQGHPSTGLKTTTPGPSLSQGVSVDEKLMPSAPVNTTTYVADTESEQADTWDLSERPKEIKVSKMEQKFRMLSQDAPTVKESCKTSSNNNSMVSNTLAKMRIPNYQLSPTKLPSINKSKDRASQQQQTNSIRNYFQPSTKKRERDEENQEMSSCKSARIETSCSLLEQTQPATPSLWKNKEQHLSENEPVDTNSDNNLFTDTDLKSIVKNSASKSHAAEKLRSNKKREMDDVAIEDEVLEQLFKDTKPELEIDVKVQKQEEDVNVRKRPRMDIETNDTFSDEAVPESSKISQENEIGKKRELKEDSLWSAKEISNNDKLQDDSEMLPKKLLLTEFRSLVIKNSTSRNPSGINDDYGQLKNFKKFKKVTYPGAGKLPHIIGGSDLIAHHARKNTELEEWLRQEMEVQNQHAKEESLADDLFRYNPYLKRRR

“Histone acetyltransferase p300 (Homo sapiens), Q09472 S106A”: the “effect of a mutation on the interaction” value with nbn_human NBN [1] was “disrupting interaction”; with nbn_human NBN [2], “decreasing interaction”.
